Article PMC5034068

Legend:
[1] = target: FKBP fused to the N terminus of TRF2 ΔB (FKBP-TRF2 ΔB), Myc-tagged
[2] = target: TRF2 (endogenous in HeLa cells) (human (endogenous in HeLa)) (UniProt Q15554); assay: proximity ligation; Duolink in situ PLA in fixed HeLa cells with anti-TRF2 and anti-histone H3 antibodies; cells scored for 10 or more signals in nuclei
Chain of UniProt Q15554 (Q15554 whole entry): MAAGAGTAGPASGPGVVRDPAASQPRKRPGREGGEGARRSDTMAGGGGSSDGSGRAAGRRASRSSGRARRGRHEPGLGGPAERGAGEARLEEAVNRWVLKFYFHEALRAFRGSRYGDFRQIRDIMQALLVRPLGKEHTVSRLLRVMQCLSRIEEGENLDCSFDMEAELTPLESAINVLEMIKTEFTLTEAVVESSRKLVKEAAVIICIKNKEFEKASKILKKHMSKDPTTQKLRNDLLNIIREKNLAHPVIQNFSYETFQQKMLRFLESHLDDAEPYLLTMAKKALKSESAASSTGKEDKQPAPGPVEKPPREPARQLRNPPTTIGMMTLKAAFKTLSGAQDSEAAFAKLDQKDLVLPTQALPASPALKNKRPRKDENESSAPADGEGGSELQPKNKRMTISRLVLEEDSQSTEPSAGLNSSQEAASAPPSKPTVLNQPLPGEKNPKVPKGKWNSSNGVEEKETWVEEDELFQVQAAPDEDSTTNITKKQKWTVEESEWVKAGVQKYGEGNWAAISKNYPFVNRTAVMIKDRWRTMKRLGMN

| generation of t-circles in FKBP-TRF2 ΔB-complemented MEFs expressing H2B-FRB, with A/C dimerizer for 48 h [1] [%] | percent of cells with more than 10 positive Duolink signals [2] | Substance |
| --- | --- | --- |
| 50 | – | FRB fused to the C terminus of histone H2B (H2B-FRB), HA-tagged |
| – | 26 % of cells | histone H3 (HeLa cells) (from UniProt P68431 1-136) (natural protein) |
